“And” between values parts separate entries of the source, which are not always exact repeats. Equal values may be shown once. Read-outs that look alike come from different tables or passages of the source.
Legend:
[1] = target: Pisum sativum (green pea) porphobilinogen synthase (PsPBGS) (Pisum sativum (green pea)); experiment: native gel or EMSA
[2] = target: human porphobilinogen synthase, wild type (WT HsPBGS) (human) (UniProt P13716)
[3] = target: human porphobilinogen synthase, wild type (WT HsPBGS) (human) (UniProt P13716); remark: listed apart in the source
[4] = target: human porphobilinogen synthase, wild type (WT HsPBGS) (human) (UniProt P13716); remark: listed apart in the source

stoichiometry N [1] | stoichiometry N [2] | percent Phe12 (WT) chains in the hetero-octamers (Pool II) [3] [%] | stoichiometry N [4] | Substance
8 and 6 | – | – | – | Pisum sativum (green pea) porphobilinogen synthase (PsPBGS) (enzyme)
– | 6 and 8 | 70 | 6 and 8 | human porphobilinogen synthase, naturally occurring variant F12L (from UniProt P13716 1-330) (enzyme)
